Reference: patent US20180236031A1

Target: high-affinity TrkA receptor on the TF-1 cell surface (UniProt P04629)
Test: cell-based or functional assay

Sequence of UniProt P04629 (P04629 33-796 limits assumed): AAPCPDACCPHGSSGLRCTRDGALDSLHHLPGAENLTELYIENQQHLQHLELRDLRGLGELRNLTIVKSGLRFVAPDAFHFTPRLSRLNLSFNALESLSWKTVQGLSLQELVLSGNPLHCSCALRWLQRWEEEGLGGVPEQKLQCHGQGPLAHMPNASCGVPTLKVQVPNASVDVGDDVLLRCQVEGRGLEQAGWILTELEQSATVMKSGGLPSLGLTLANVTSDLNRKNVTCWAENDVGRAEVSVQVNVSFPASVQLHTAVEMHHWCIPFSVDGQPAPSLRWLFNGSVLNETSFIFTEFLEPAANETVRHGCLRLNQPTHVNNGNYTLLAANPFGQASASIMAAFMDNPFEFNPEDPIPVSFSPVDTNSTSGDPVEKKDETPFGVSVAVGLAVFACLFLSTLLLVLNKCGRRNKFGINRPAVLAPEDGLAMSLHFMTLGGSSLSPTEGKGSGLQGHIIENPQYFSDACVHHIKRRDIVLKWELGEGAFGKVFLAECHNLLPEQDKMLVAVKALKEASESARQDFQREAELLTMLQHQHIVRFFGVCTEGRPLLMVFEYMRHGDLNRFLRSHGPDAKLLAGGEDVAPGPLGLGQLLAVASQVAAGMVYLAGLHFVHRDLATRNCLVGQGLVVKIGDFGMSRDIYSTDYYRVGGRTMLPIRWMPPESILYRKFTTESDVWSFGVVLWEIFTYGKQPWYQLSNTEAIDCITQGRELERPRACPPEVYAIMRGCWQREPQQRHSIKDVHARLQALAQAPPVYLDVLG

specific activity in the TF-1 cell proliferation assay (MTT): 1.2e+06 AU mg^-1
Substance: rhNGF-CTP (long-lasting recombinant human nerve growth factor; mature NGF-CTP) (ligand)
